Source: US20230312722A1 (NONA BIOSCIENCES SUZHOU, published 2023)

B1: PR003899 (bispecific antibody, human IgG1, lambda, L234A L235A)
light: QAVVTQEPSLTVSPGGTVTLTCRSSTGAVTTSNYANWVQQKPGQAPRGLIGGTNKRAPWTPARFSGSLLGDKAALTLLGAQPEDEAEYFCALWYSNLWVFGGGTKLTVLGQPKAAPSVTLFPPSSEELQANKATLVCLISDFYPGAVTVAWKADSSPVKAGVETTTPSKQSNNKYAASSYLSLTPEQWKSHRSYSCQVTHEGSTVEKTVAPTECS
heavy: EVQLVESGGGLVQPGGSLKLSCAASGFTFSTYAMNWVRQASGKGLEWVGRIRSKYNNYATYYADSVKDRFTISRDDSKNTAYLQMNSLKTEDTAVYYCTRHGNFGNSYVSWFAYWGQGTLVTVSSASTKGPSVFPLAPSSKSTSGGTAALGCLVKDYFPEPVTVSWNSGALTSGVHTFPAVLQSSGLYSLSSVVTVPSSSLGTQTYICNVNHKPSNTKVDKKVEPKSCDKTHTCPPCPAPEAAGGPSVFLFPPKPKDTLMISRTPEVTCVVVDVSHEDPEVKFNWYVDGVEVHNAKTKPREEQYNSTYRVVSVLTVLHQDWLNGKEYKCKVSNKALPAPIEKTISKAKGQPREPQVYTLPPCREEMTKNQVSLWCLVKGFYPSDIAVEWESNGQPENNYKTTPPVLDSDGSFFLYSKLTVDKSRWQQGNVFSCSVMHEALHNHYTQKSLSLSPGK
chain: EIVMTQSPASLSVSPGERATLSCRASQSVSSNLAWYQQKPGQAPRLLIYGASTRATGIPARVSGGGSGTEFTLTISSLQSEDFAVYYCQQYKNWPFTFGPGTKLEIKGGGGSGGGGSGGGGSGGGGSQVQLVQSGAEVKKPGSSMRVSCKASEDTFSSYAISWVRQAPGQGLEWMGGTAPIFGTTNYAQKFQGRVTITADKSTSTAYMELSSLRSEDTAVYYCARGGPYFDYWGQGTLVTVSSASEPKSSDKTHTCPPCPAPEAAGGPSVFLFPPKPKDTLMISRTPEVTCVVVDVSHEDPEVKFNWYVDGVEVHNAKTKPREEQYNSTYRVVSVLTVLHQDWLNGKEYKCKVSNKALPAPIEKTISKAKGQPREPQVCTLPPSREEMTKNQVSLSCAVKGFYPSDIAVEWESNGQPENNYKTTPPVLDSDGSFFLVSKLTVDKSRWQQGNVFSCSVMHEALHNHYTQKSLSLSPGK
notes: B7H4 x CD3, 1+1 Fab-Fc-scFv: CD3 Fab from PR003886 (knob, LALA; weak CD3 end), B7H4 scFv(VL-VH)-Fc (hole, LALA)
B2: PR002849 (bispecific antibody, human IgG1, kappa, L234A L235A)
light: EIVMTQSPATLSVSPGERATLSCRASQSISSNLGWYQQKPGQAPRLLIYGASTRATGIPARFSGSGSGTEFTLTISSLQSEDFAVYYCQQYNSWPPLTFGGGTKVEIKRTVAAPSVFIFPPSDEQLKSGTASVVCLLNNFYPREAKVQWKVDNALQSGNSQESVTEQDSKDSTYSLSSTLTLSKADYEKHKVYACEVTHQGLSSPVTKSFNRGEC
heavy: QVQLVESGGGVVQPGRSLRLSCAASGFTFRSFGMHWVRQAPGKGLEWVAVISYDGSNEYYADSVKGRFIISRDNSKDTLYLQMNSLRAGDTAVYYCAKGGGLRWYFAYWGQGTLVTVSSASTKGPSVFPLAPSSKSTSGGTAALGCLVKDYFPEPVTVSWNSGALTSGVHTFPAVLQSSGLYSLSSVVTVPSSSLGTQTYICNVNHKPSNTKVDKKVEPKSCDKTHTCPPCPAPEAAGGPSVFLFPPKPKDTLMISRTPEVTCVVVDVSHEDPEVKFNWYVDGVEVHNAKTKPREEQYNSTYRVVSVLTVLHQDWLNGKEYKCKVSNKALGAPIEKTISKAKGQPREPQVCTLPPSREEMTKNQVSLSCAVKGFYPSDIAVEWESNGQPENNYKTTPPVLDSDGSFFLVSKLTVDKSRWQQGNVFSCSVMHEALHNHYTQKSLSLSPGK
chain: QAVVTQEPSLTVSPGGTVTLTCRSSTGAVTTSNYANWVQQKPGQAPRGLIGGTNKRAPWTPARFSGSLLGDKAALTLLGAQPEDEAEYFCALWYSNLWVFGGGTKLTVLGGGQSGQGGSGGGGSEVQLVESGGGLVQPGGSLKLSCAASGFTFNTYAMNWVRQASGKGLEWVGRIRSKYNNYATYYADSVKDRFTISRDDSKSTLYLQMNSLKTEDTAVYYCVRHGNFGNSYVSWFAYWGQGTLVTVSSASEPKSSDKTHTCPPCPAPEAAGGPSVFLFPPKPKDTLMISRTPEVTCVVVDVSHEDPEVKFNWYVDGVEVHNAKTKPREEQYNSTYRVVSVLTVLHQDWLNGKEYKCKVSNKALGAPIEKTISKAKGQPREPQVYTLPPCREEMTKNQVSLWCLVKGFYPSDIAVEWESNGQPENNYKTTPPVLDSDGSFFLYSKLTVDKSRWQQGNVFSCSVMHEALHNHYTQKSLSLSPGK
notes: B7H4 x CD3, 1+1 Fab-Fc-scFv (structure 1): B7H4 Fab from PR001476 (hole, AAG), CD3 scFv(VL-VH)-Fc from PR000627 (knob, AAG)
B3: PR002850 (bispecific antibody, human IgG1, kappa, L234A L235A)
light: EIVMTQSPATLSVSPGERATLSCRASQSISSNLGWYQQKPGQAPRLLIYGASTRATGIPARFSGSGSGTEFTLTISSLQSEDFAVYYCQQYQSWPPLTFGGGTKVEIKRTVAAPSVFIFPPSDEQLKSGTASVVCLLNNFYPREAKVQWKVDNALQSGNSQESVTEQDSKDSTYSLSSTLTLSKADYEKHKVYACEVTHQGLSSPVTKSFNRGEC
heavy: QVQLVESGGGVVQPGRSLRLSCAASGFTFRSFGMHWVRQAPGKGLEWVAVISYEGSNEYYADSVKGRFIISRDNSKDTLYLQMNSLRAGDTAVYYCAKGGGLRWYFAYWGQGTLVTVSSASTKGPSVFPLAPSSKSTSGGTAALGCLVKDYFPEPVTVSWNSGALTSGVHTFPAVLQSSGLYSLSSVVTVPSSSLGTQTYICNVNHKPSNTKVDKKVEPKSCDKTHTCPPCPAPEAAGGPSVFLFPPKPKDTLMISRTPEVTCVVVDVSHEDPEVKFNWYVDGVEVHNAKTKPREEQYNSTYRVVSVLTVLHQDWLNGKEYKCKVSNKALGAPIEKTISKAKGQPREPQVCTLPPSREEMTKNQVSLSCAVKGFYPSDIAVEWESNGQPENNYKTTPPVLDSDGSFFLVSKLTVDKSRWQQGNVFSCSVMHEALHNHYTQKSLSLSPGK
chain: B2 chain
notes: B7H4 x CD3, 1+1 Fab-Fc-scFv (structure 1): B7H4 Fab from PR002405, CD3 scFv-Fc from PR000627
B4: PR003733 (bispecific antibody, human IgG1, lambda, L234A L235A)
light: B1 light
heavy: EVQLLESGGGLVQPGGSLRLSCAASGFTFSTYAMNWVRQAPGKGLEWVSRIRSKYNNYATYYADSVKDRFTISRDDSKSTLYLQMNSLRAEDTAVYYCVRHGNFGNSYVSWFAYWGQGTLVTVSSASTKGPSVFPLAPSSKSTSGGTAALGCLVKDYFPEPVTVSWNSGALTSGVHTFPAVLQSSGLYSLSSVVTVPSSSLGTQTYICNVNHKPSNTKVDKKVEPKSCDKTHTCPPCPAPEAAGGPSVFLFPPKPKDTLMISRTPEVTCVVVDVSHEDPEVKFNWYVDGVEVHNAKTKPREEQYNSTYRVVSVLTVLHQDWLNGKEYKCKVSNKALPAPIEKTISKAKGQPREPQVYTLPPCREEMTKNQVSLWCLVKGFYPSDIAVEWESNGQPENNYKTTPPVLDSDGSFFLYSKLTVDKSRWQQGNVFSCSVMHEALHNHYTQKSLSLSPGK
chain: B1 chain
notes: B7H4 x CD3, 1+1 Fab-Fc-scFv: CD3 Fab from PR001848 (knob, LALA; strong CD3 end), B7H4 scFv(VL-VH)-Fc (hole, LALA)
B5: PR002855 (bispecific antibody, human IgG1, kappa, lambda, L234A L235A)
chain 1: EVQLLESGGGLVQPGGSLRLSCAASGFTFSTYAMNWVRQAPGKGLEWVSRIRSKYNNYATYYADSVKDRFTISRDDSKSTLYLQMNSLRAEDTAVYYCVRHGNFGNSYVSWFAYWGQGTLVTVSSASTKGPSVFPLAPSSKSTSGGTAALGCLVKDYFPEPVTVSWNSGALTSGVHTFPAVLQSSGLYSLSSVVTVPSSSLGTQTYICNVNHKPSNTKVDKKVEPKSC
chain 2: QAVVTQEPSLTVSPGGTVTLTCRSSTGAVTTSNYANWVQQKPGQAPRGLIGGTNKRAPWTPARFSGSLLGDKAALTLLGAQPEDEAEYFCALWYSNLWVFGGGTKLTVLGQPKAAPSVTLFPPSSEELQANKATLVCLISDFYPGAVTVAWKADSSPVKAGVETTTPSKQSNNKYAASSYLSLTPEQWKSHRSYSCQVTHEGSTVEKTVAPTECSDKTHTCPPCPAPEAAGGPSVFLFPPKPKDTLMISRTPEVTCVVVDVSHEDPEVKFNWYVDGVEVHNAKTKPREEQYNSTYRVVSVLTVLHQDWLNGKEYKCKVSNKALGAPIEKTISKAKGQPREPQVYTLPPCREEMTKNQVSLWCLVKGFYPSDIAVEWESNGQPENNYKTTPPVLDSDGSFFLYSKLTVDKSRWQQGNVFSCSVMHEALHNHYTQKSLSLSPGK
heavy: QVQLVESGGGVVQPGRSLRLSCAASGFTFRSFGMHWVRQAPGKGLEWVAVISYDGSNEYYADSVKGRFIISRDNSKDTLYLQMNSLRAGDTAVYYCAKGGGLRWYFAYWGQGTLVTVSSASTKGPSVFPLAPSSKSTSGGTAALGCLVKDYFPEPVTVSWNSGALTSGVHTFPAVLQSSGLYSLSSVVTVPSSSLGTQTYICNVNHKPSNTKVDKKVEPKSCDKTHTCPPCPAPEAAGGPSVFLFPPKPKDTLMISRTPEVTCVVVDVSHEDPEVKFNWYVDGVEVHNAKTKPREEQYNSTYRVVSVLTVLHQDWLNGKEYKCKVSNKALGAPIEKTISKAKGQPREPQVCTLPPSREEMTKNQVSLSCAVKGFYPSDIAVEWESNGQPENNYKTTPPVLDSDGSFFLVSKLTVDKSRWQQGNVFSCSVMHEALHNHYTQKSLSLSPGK
light: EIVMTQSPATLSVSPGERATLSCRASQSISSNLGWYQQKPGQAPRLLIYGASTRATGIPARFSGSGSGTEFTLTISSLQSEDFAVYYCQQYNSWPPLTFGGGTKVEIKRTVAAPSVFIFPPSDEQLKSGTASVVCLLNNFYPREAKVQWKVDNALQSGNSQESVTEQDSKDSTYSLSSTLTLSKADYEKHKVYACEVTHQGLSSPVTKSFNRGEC
notes: B7H4 x CD3, 1+1 Fab-Fc-crossFab (structure 4): CD3 Fab(cross Fd/LC) from PR001924 (chains 1 and 2), B7H4 Fab from PR001476 (chains 3 and 4)
B6: PR002987 (bispecific antibody, human IgG1, kappa, lambda, L234A L235A)
chain 1: B5 chain 1
chain 2: not shown
heavy: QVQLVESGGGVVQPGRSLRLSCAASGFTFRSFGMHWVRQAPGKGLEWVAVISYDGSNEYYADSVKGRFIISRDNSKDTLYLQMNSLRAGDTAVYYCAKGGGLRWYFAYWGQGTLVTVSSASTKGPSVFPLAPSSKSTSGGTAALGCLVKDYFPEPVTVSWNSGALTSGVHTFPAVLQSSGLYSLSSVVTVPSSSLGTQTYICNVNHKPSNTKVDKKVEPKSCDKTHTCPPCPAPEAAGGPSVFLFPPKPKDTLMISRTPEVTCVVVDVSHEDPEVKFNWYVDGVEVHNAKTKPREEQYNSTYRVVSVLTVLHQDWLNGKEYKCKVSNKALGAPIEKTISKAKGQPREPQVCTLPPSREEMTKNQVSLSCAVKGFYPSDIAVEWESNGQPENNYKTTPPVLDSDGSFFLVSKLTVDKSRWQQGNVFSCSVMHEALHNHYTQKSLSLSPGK
light: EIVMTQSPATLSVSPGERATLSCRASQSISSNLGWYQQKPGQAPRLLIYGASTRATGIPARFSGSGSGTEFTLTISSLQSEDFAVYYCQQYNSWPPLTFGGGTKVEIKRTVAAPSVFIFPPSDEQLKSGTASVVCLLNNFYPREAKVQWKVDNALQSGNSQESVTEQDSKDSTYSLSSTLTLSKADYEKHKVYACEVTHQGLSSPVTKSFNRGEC
notes: B7H4 x CD3, 2+1 asymmetric structure (structure 5): CD3 end from PR001924, two B7H4 Fabs from PR001476
B7: PR002856 (bispecific antibody, human IgG1, kappa, lambda, L234A L235A)
chain 1: B5 chain 1
chain 2: B5 chain 2
heavy: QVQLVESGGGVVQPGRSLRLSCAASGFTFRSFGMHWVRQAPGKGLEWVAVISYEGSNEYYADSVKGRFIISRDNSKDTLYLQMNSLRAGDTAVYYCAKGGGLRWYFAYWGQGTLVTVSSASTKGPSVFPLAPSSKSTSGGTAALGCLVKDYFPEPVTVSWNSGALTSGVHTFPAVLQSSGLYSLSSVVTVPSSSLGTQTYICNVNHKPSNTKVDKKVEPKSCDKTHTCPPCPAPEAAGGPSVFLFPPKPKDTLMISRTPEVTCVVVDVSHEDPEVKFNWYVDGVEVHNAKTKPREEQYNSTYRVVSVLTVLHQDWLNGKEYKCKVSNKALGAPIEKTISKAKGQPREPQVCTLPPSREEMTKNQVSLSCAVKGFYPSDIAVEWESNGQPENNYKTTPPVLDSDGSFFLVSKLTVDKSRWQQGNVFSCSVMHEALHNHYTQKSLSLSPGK
light: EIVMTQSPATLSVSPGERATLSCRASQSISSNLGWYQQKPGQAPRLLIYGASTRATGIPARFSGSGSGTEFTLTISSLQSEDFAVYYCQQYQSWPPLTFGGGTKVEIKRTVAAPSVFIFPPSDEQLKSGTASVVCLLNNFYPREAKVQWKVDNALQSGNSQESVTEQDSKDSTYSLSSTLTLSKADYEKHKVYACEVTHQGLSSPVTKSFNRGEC
notes: B7H4 x CD3, 1+1 Fab-Fc-crossFab (structure 4): CD3 crossFab from PR001924, B7H4 Fab from PR002405
B8: PR002851 (bispecific antibody, human IgG1, kappa, L234A L235A)
light: not shown
heavy: not shown
chain: B2 chain
notes: B7H4 x CD3, 1+1 Fab-Fc-scFv (structure 1): B7H4 Fab from PR002408, CD3 scFv-Fc from PR000627
B9: PR002857 (bispecific antibody, human IgG1, kappa, lambda, L234A L235A)
chain 1: B5 chain 1
chain 2: B5 chain 2
heavy: not shown
light: not shown
notes: B7H4 x CD3, 1+1 Fab-Fc-crossFab (structure 4): CD3 crossFab from PR001924, B7H4 Fab from PR002408

Each binder was assayed against T1, CD3 on human T cells (human, UniProt P07766 23-207; P04234 22-171; P09693 23-182) (assay: FACS on human T cells).
Method: (§1) SK-BR-3 cells were digested. T cells were isolated using the human T cell isolation kit (Miltenyi, #130-096-535) as described in the method of the instruction, and resuspended with PBS containing 2% BSA. The cell density was adjusted to 1×10⁶ cells/mL. The cells were seeded in a 96-well V-bottom plate (Corning, #3894) at 100 μL/well, followed by the addition of test antibodies diluted in a 3-fold gradient at a concentration that was 2 times the final concentration, each at 100 μL/well. The cells were incubated at 4° C. for 2 h away from light. Thereafter, the cells in each well were rinsed twice with 100 μL of pre-cooled PBS containing 2% BSA, and centrifuged at 500 g at 4° C. for 5 min, and then the supernatant was discarded. Then each well was added with 100 μL of fluorescent secondary antibody (Alexa Fluor 488-conjugated AffiniPure Goat Anti-Human IgG, Fcγ Fragment Specific, Jackson, #109-545-098, diluted in a 1:500 ratio), and the plate was incubated away from light at 4° C. for 1 h. The cells in each well were washed twice with 100 μL of pre-cooled PBS containing 2% BSA, and centrifuged at 500 g at 4° C. for 5 minutes, and then the supernatant was discarded. Finally, the cells in each well were resuspended with 200 μL of pre-cooled PBS containing 2% BSA, and the fluorescence signal values were read using an ACEA Novocyte3000 flow cytometer.

T1 sequence (P07766 23-207 limits assumed, chain 1 of 3): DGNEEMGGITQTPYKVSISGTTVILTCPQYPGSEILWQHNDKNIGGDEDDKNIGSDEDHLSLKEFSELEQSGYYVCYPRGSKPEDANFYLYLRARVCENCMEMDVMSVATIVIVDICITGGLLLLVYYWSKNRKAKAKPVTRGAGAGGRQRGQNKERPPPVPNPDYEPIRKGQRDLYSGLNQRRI
T1 sequence (P04234 22-171 limits assumed, chain 2 of 3): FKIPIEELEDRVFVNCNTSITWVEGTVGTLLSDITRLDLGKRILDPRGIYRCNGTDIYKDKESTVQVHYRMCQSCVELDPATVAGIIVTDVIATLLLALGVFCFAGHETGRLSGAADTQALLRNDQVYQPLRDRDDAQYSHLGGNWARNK
T1 sequence (P09693 23-182 limits assumed, chain 3 of 3): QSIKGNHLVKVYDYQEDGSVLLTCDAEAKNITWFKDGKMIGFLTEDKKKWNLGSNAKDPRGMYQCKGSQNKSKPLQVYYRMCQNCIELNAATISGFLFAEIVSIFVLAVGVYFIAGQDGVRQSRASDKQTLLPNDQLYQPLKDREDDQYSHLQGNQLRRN

B1: no binding (tested: 100 nM).

Each binder was assayed against T2, human B7H4 on the cell surface (human, UniProt Q7Z7D3 25-282) (assay: FACS on SK-BR-3 cells).
T2 construct: whole, on cells; also called CHOK1/hu B7H4; B7H4 on SK-BR-3
T2 sequence (looked up): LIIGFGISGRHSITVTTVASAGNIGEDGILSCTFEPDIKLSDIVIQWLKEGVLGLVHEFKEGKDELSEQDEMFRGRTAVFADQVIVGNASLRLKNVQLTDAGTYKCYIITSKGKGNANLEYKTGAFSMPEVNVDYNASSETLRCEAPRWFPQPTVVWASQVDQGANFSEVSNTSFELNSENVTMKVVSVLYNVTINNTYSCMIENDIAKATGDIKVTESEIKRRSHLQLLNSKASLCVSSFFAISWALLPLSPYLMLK
Method: as §1

B2 and B3 are within 1.5-fold of each other in EC50: 0.933 nM for the first, 0.676 nM for the second.

B4 and B1 are within 1.5-fold of each other in EC50: 71.2 nM for the first, 51.2 nM for the second.

Compared with B5, B6 is 28-fold lower in EC50: 4.05 nM for the first, 0.145 nM for the second. The second is the more potent here.

B7 showed an EC50 of 1.32 nM.

First: B2
Second: B3
The “Maximum MFI” value of the first is lower: 146000 for the first, 179000 for the second.

Going from B4 to B1, the “Maximum MFI” value rises from 214000 to 227000.

First: B5
Second: B6
The “Maximum MFI” value of the first is lower: 179000 for the first, 193000 for the second.

For B7, the “Maximum MFI” value was 212000.

What follows are binders tested against T1, CD3 on human T cells (assay: FACS on human T cells; EC50 printed as n.d., curve still rising at 100 nM).
Method: as §1

Compared with B2, B8 is higher in “Maximum MFI” value: 121000 for the first, 125000 for the second.

Compared with B3, B5 is higher in “Maximum MFI” value: 133000 for the first, 197000 for the second.

Compared with B6, B7 is higher in “Maximum MFI” value: 73600 for the first, 189000 for the second.

With B9 the “Maximum MFI” value was 187000.
